According to the FLAb antibody collection (doi:10.1101/2023.12.08.570889):

B1: unnamed (protein)
chain 1: EVQLLESGGGLVQPGGSLRLSCAASGFTFSQYGMDWVRQAPGKGLEWVSGIGPSGGSTVYADSVKGRFTISRDNSKNTLYLQMNSLRAEDTAVYYCTRDGSAYYYAFDYWGQGTTVTVSS
chain 2: DIQMTQSPSSLSASVGDRVTITCQASQDISNYLNWYQQKPGKAPKLLIYDASNLETGVPSRFSGSGSGTDFTFTISSLQPEDIATYYCQQADSFPVTFGGGTKVEIK
B2: unnamed (protein)
chain 1: EVQLLESGGGLVQPGGSLRLSCAASGFTFSSYAMDWVRQAPGKGLEWVSGISSDGGSTVYADSVKGRFTISRDNSKNTLYLQMNSLRAEDTAVYYCTRDGPYYYYAFDVWGQGTTVTVSS
chain 2: DIQMTQSPSSLSASVGDRVTITCQASQDISNYLNWYQQKPGKAPKLLIYDASNLETGVPSRFSGSGSGTDFTFTISSLQPEDIATYYCQQADSFPVTFGGGTKVEIK
B3: unnamed (protein)
chain 1: EVQLLESGGGLVQPGGSLRLSCAASGFTFSSYAMDWVRQAPGKGLEWVSGISYDGGSTVYADSVKGRFTISRDNSKNTLYLQMNSLRAEDTAVYYCARGGPAYYYAFDVWGQGTTVTVSS
chain 2: DIQMTQSPSSLSASVGDRVTITCQASQDISNYLNWYQQKPGKAPKLLIYDASNLETGVPSRFSGSGSGTDFTFTISSLQPEDIATYYCQQADSFPVTFGGGTKVEIK
B4: unnamed (protein)
chain 1: EVQLLESGGGLVQPGGSLRLSCAASGFTFSSYAMDWVRQAPGKGLEWVSGISADGGSTVYADSVKGRFTISRDNSKNTLYLQMNSLRAEDTAVYYCTRGGPAYYYAFDYWGQGTTVTVSS
chain 2: DIQMTQSPSSLSASVGDRVTITCQASQDISNYLNWYQQKPGKAPKLLIYDASNLETGVPSRFSGSGSGTDFTFTISSLQPEDIATYYCQQADSFPVTFGGGTKVEIK
B5: unnamed (protein)
chain 1: EVQLLESGGGLVQPGGSLRLSCAASGFTFSSYAMDWVRQAPGKGLEWVSGISADGGSTVYADSVKGRFTISRDNSKNTLYLQMNSLRAEDTAVYYCTRDGPAYYYGFDVWGQGTTVTVSS
chain 2: DIQMTQSPSSLSASVGDRVTITCQASQDISNYLNWYQQKPGKAPKLLIYDASNLETGVPSRFSGSGSGTDFTFTISSLQPEDIATYYCQQADSFPVTFGGGTKVEIK
B6: unnamed (protein)
chain 1: EVQLLESGGGLVQPGGSLRLSCAASGFTFSSYGMDWVRQAPGKGLEWVSGISSDGGSTVYADSVKGRFTISRDNSKNTLYLQMNSLRAEDTAVYYCTRDGPAYYYAFDVWGQGTTVTVSS
chain 2: DIQMTQSPSSLSASVGDRVTITCQASQDISNYLNWYQQKPGKAPKLLIYDASNLETGVPSRFSGSGSGTDFTFTISSLQPEDIATYYCQQADSFPVTFGGGTKVEIK
B7: unnamed (protein)
chain 1: EVQLLESGGGLVQPGGSLRLSCAASGFTFSQYGMDWVRQAPGKGLEWVSGIGPSGGSTVYADSVKGRFTISRDNSKNTLYLQMNSLRAEDTAVYYCARRGRYGLYAMDYWGQGTTVTVSS
chain 2: DIQMTQSPSSLSASVGDRVTITCQASQDISNYLNWYQQKPGKAPKLLIYDASNLETGVPSRFSGSGSGTDFTFTISSLQPEDIATYYCQQADSFPVTFGGGTKVEIK
B8: unnamed (protein)
chain 1: EVQLLESGGGLVQPGGSLRLSCAASGFTFSSYAMDWVRQAPGKGLEWVSGISSDGGSTVYADSVKGRFTISRDNSKNTLYLQMNSLRAEDTAVYYCARGGPAYYYAFDVWGQGTTVTVSS
chain 2: DIQMTQSPSSLSASVGDRVTITCQASQDISNYLNWYQQKPGKAPKLLIYDASNLETGVPSRFSGSGSGTDFTFTISSLQPEDIATYYCQQADSFPVTFGGGTKVEIK
B9: unnamed (protein)
chain 1: EVQLLESGGGLVQPGGSLRLSCAASGFTFSSYGMDWVRQAPGKGLEWVSGISSDGGSTVYADSVKGRFTISRDNSKNTLYLQMNSLRAEDTAVYYCTRDGPSYYYAFDVWGQGTTVTVSS
chain 2: DIQMTQSPSSLSASVGDRVTITCQASQDISNYLNWYQQKPGKAPKLLIYDASNLETGVPSRFSGSGSGTDFTFTISSLQPEDIATYYCQQADSFPVTFGGGTKVEIK
B10: unnamed (protein)
chain 1: EVQLLESGGGLVQPGGSLRLSCAASGFTFSSYGMDWVRQAPGKGLEWVSGISSDGGSTVYADSVKGRFTISRDNSKNTLYLQMNSLRAEDTAVYYCTRGGPAYYYAFDVWGQGTTVTVSS
chain 2: DIQMTQSPSSLSASVGDRVTITCQASQDISNYLNWYQQKPGKAPKLLIYDASNLETGVPSRFSGSGSGTDFTFTISSLQPEDIATYYCQQADSFPVTFGGGTKVEIK
B11: unnamed (protein)
chain 1: EVQLLESGGGLVQPGGSLRLSCAASGFTFSSYAMDWVRQAPGKGLEWVSGISSDGGSTVYADSVKGRFTISRDNSKNTLYLQMNSLRAEDTAVYYCTRDGPWYYYAFDVWGQGTTVTVSS
chain 2: DIQMTQSPSSLSASVGDRVTITCQASQDISNYLNWYQQKPGKAPKLLIYDASNLETGVPSRFSGSGSGTDFTFTISSLQPEDIATYYCQQADSFPVTFGGGTKVEIK
B12: unnamed (protein)
chain 1: EVQLLESGGGLVQPGGSLRLSCAASGFTFSSYAMDWVRQAPGKGLEWVSGISGDGGSTVYADSVKGRFTISRDNSKNTLYLQMNSLRAEDTAVYYCTRGGPAYYYGFDVWGQGTTVTVSS
chain 2: DIQMTQSPSSLSASVGDRVTITCQASQDISNYLNWYQQKPGKAPKLLIYDASNLETGVPSRFSGSGSGTDFTFTISSLQPEDIATYYCQQADSFPVTFGGGTKVEIK
B13: unnamed (protein)
chain 1: EVQLLESGGGLVQPGGSLRLSCAASGFTFSSYAMDWVRQAPGKGLEWVSGISSDGGSTVYADSVKGRFTISRDNSKNTLYLQMNSLRAEDTAVYYCARGGPAYYYGFDVWGQGTTVTVSS
chain 2: DIQMTQSPSSLSASVGDRVTITCQASQDISNYLNWYQQKPGKAPKLLIYDASNLETGVPSRFSGSGSGTDFTFTISSLQPEDIATYYCQQADSFPVTFGGGTKVEIK
B14: unnamed (protein)
chain 1: EVQLLESGGGLVQPGGSLRLSCAASGFTFSSYGMDWVRQAPGKGLEWVSGISADGGSTVYADSVKGRFTISRDNSKNTLYLQMNSLRAEDTAVYYCTRGGPAYYYAFDVWGQGTTVTVSS
chain 2: DIQMTQSPSSLSASVGDRVTITCQASQDISNYLNWYQQKPGKAPKLLIYDASNLETGVPSRFSGSGSGTDFTFTISSLQPEDIATYYCQQADSFPVTFGGGTKVEIK
B15: unnamed (protein)
chain 1: EVQLLESGGGLVQPGGSLRLSCAASGFTFSSYAMDWVRQAPGKGLEWVSGISSDGGSTVYADSVKGRFTISRDNSKNTLYLQMNSLRAEDTAVYYCARGGPSYYYAFDVWGQGTTVTVSS
chain 2: DIQMTQSPSSLSASVGDRVTITCQASQDISNYLNWYQQKPGKAPKLLIYDASNLETGVPSRFSGSGSGTDFTFTISSLQPEDIATYYCQQADSFPVTFGGGTKVEIK
B16: unnamed (protein)
chain 1: EVQLLESGGGLVQPGGSLRLSCAASGFTFSSYAMDWVRQAPGKGLEWVSGISSDGGSTVYADSVKGRFTISRDNSKNTLYLQMNSLRAEDTAVYYCTRGGPYYYYAFDVWGQGTTVTVSS
chain 2: DIQMTQSPSSLSASVGDRVTITCQASQDISNYLNWYQQKPGKAPKLLIYDASNLETGVPSRFSGSGSGTDFTFTISSLQPEDIATYYCQQADSFPVTFGGGTKVEIK
B17: unnamed (protein)
chain 1: EVQLLESGGGLVQPGGSLRLSCAASGFTFSQYGMDWVRQAPGKGLEWVSGIGPSGGSTVYADSVKGRFTISRDNSKNTLYLQMNSLRAEDTAVYYCTRGGPYYYYGMDVWGQGTTVTVSS
chain 2: DIQMTQSPSSLSASVGDRVTITCQASQDISNYLNWYQQKPGKAPKLLIYDASNLETGVPSRFSGSGSGTDFTFTISSLQPEDIATYYCQQADSFPVTFGGGTKVEIK
B18: unnamed (protein)
chain 1: EVQLLESGGGLVQPGGSLRLSCAASGFTFSSYAMDWVRQAPGKGLEWVSGISSDGGSTVYADSVKGRFTISRDNSKNTLYLQMNSLRAEDTAVYYCARDGPSYYYAFDVWGQGTTVTVSS
chain 2: DIQMTQSPSSLSASVGDRVTITCQASQDISNYLNWYQQKPGKAPKLLIYDASNLETGVPSRFSGSGSGTDFTFTISSLQPEDIATYYCQQADSFPVTFGGGTKVEIK
B19: unnamed (protein)
chain 1: EVQLLESGGGLVQPGGSLRLSCAASGFTFSSYAMDWVRQAPGKGLEWVSGISGDGGSTVYADSVKGRFTISRDNSKNTLYLQMNSLRAEDTAVYYCTRGGPAYYYAFDYWGQGTTVTVSS
chain 2: DIQMTQSPSSLSASVGDRVTITCQASQDISNYLNWYQQKPGKAPKLLIYDASNLETGVPSRFSGSGSGTDFTFTISSLQPEDIATYYCQQADSFPVTFGGGTKVEIK

target: FXI; assay: Kd (SPR)

| Binder | Kd [nM] |
| --- | --- |
| B1 | 248 |
| B2 | 693 |
| B3 | 702 |
| B4 | 707 |
| B5 | 485 |
| B6 | 58 |
| B7 | 2040 |
| B8 | 635 |
| B9 | 80.9 |
| B10 | 293 |
| B11 | 692 |
| B12 | 546 |
| B13 | 310 |
| B14 | 245 |
| B15 | 505 |
| B16 | 375 |
| B17 | 102 |
| B18 | 51.1 |
| B19 | 857 |
